Experimental data published in paper PMC5467237.

Molecular target: T1, hCHCHD2 WT expressed in CHCHD2-/- MEFs (human), Q9Y6H1
T1 chain: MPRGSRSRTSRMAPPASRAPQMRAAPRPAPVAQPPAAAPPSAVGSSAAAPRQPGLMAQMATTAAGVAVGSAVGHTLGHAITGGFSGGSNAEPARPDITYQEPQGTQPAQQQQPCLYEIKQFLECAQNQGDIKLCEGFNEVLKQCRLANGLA
Assay: cross-linking; hCHCHD2-expressing MEFs treated with or without 0.5 μg/ml DSP in PBS for 20 min at RT, lysed, western blot with anti-CHCHD2; ratio of monomer signals to total signals
Settings: remark: other sources report otherwise

monomer form as share of total CHCHD2 signals (% of total CHCHD2 signals): < 50 | stoichiometry N: 2
B1: hCHCHD2 WT expressed in CHCHD2-/- MEFs, Q9Y6H1 1-151 (natural protein)
chain: MPRGSRSRTSRMAPPASRAPQMRAAPRPAPVAQPPAAAPPSAVGSSAAAPRQPGLMAQMATTAAGVAVGSAVGHTLGHAITGGFSGGSNAEPARPDITYQEPQGTQPAQQQQPCLYEIKQFLECAQNQGDIKLCEGFNEVLKQCRLANGLA
